In the nanobody polyreactivity screen of Harvey et al. (2022):

Experiment: yeast display, Sf9 membrane polyspecificity reagent, FACS + sequencing; frameworks hold sequencing errors
Outline: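 A nanobody's polyreactivity label depends on the gate it was sorted from. Yeast display cells were stained with 10% biotinylated, detergent-solubilized Sf9 membrane reagent for 1 hour at 4 °C, enriched on streptavidin microbeads and sorted by FACS. The low and high (top ~1%) gates were set on anti-HA fluorescence for expression and streptavidin fluorescence for reagent binding.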

Sequence: QVQLVESGGGLVQAGGSLRLSCAASGLTFQVYAMGWYRQAPGKERELVAGITRGGRTYYADSVKGRFTISRDNAKNTVYLQMNSLKPEDTAVYYCNADAPYGGPSWAKSRYEYWGQGTQVTVSS
- polyreactivity (PSR sort gate): low polyreactivity

Sequence: QVQLVESGGGLVQAGGSLRVSCAASGSIFRFNVMGWYRQAPGKERELVAAITRGDSTNYADSVKGRFTISRDNAKNTVYLQMNSLKPEDTAVYYCAAGYYYYLRDHDYWGQGTQVTVSS
- polyreactivity (PSR sort gate): low polyreactivity

Sequence: QVQLVESGGGLVQAGGSLRLSCAASGPTFRRYGMGWYRQAPGKERELVDAITTRGGSTYYADSVKGRFTISRDNAKNTVYLQMNSLKPEDTAVYYCAAPRKYFYSSATGNYWGQGTQVTVSS
- polyreactivity (PSR sort gate): high polyreactivity

Sequence: QVQHVESGGGLVQAGGSLRLSCAASGSIFGRYVMGRYRQAPGKESEFVAAISRSGGRTYYADSVKGRFTISRDNAKNTVYLQMNSLKPEDTAVYYCNAVGAAGPYDYWGQGTQVTVSS
- polyreactivity (PSR sort gate): high polyreactivity

Sequence: QVQLVESGGGLVQAGGSLRLSCAASGSTFSNNAMAWYRQAPGKERELVAGINSSGGRTYYADSVKGRFTISRDNAKNTVYLQMISLKPEDTAVYYCAAESRYYYELGYWGQGTQVTVSS
- polyreactivity (PSR sort gate): high polyreactivity

Sequence: QVQLVESGGGLVQAGGSLRLSCAASGFIFYRYAMGWYRQAPGKEREFVASISGSGGRTYFADSVKGRFTISRDNAKNTVYLQMNSLKPEDTAVYYCNVVSKSRISQYVGYSYDYWGQGTQVTVSS
- polyreactivity (PSR sort gate): high polyreactivity

Sequence: QVQLVESGGGLVQAGGSLRLSCAASGFTFALNAMGWYRQAPGKERELVAAISFSGTRTYYADSVKGRFTISRDNAKNTVYLQMNSLKPEDTAVYYCAARVWVSDSYYPYYYWGQGTQVTVSS
- polyreactivity (PSR sort gate): high polyreactivity

Sequence: QVQLVESGGGLVQAGGRLRLSCAASGSTFWYYAMGWSRQAPGKEREFVAAITTGGSSTYYADSVKGRFTISRDNAKNTVYLQMNSLKPEDTAVYYCAARGWRSPYAYYYWGQGTQVTVSS
- polyreactivity (PSR sort gate): high polyreactivity

Sequence: QGQLVESGGGLVQAGGSLRLSCAASGITFPYYAMGWYRQAPGKERELVADITSGGSTNYADSVKGRFTISRDNAKNTVYLQMNSLKPDDTAVYYCAADWYVIYDYWGQGTQVTVSS
- polyreactivity (PSR sort gate): low polyreactivity

Sequence: QVQLVESGGGLVQAGGSLRLSCAASGSILDSNAMGWYRQAPGKERELVAAITSGGSTYYADSVKGRFTISRDNAMNSVYLQMNSLKPEDTAVYYCAAAYLGYGAVQPSYEGGYWGQGTQVTVSS
- polyreactivity (PSR sort gate): low polyreactivity

Sequence: QVQLVESGGGLVQAGGSLRLSCAASGSTSPTNVMGWYRQAPGKERELVAAISYSGGRTYYADSVKGRFTISRDNAKNTVYLQMNSLKPEDTAVYYCNAGKRGSTYYYWGQGTQVTVSS
- polyreactivity (PSR sort gate): high polyreactivity

Sequence: QDQLVESGGGLVQAGGSLRLSCAASGRIFGSYAMGWYRQAPGKERELVAAISIGGRTYYADSVKGRFTISRDNAKNTVYLQMNSLKPEDTAVYYCNAPAYYWRHYVYDSGYDYWGQGTQVTVSS
- polyreactivity (PSR sort gate): low polyreactivity

Sequence: QVQLVESGGGLVQAGGILRLSCAASGRITFSHNTMGWYIQAPGKERELVAAISSGGRTNYADSVKGRFTISRDNAKNTVYLQMNSLKPEDTAVYYCARESHYDFIYDGMDYWGQGTQVTVSS
- polyreactivity (PSR sort gate): low polyreactivity

Sequence: QVQLVESGGGLVQAGGSLRLSCAASGLTFHYYAMGWYRQAPGKERELVAVISSGGSTYYADSVKGRFTISRDNAKNTVYLQMNSLKPEDTAVYYCAKLSLSWDGYYQYDYRGQGTQVTVSS
- polyreactivity (PSR sort gate): low polyreactivity

Sequence: QVQLAESGGCLVQAGGSLRLSCAASGIIFYFYAMGWYRPAPGKERELVAAISGTGGRTYYADSVKGRFTISRDNAKNTVSLQMNSLKPDDTAVYYCNADDTPVPSIRFDYWGQGTQVTVSS
- polyreactivity (PSR sort gate): low polyreactivity

Sequence: QVQLVESGGGLVQAGGSLRLSCAASGSIFTKYAMGWYRQAPGKERELLAAITSSSGRTYYADSVKGRFTISRDNAKNTVYLQMNSLKPEDTAVYYCNRGKRVAVSYRPGGYDYWGQGTQVTVSS
- polyreactivity (PSR sort gate): high polyreactivity

Sequence: QVQLVESGGGLVQAGGSLRLSCAASGRTFYVNAMGWYRQAPGKERELVARISSSGITYYADSVKGRFTISRDNAKNTVYLQMNSLKPEDTAVYYCAAEYRSYSTLNRKFWYSPEYDYWGQGTQVTVSS
- polyreactivity (PSR sort gate): low polyreactivity

Sequence: QVHLVESGGGLVQAGGSLRLSCAASGFIFSCYAMGWYRQAPGKERELVATITSGGSTVYADSVKGRFTISRDNAKNTVSLEMNSLKPEDTAVYYSNVDSTLYYLSRDYDYWGQATQVTVSS
- polyreactivity (PSR sort gate): high polyreactivity

Sequence: QVQLLESGGGLVQAGGSLRLSCAASGRIFSRYAMGWYRQAPGKERELVASISWSGDGTYYADSVKGRFTISRDNAKNTVYLQMNSLKPEDTAVYYCAAAPWDAPWSGYEYWGQGTEVTVSS
- polyreactivity (PSR sort gate): high polyreactivity

Sequence: QVQLVESAGGLVQAGGSLRLSCAASGRTFTDYVMGWYRQAPGKESELVAAITSGGGTTYYADSVKGRFTISRDNAKKTVYLQMNSLKPEDTAVYYGNAVSYRRSRYWGYVYWGQGTQVTVSS
- polyreactivity (PSR sort gate): high polyreactivity

Sequence: QVQLVESGGGLVQAGCSLRISSAASGRIFAVKAMGWYRQAPGKDRELVAAITNVGSTNYADSVKGRFTISRDNAKNTVYLQMNSLKPEDTAVYYCNADLAQEDWKMDYWGQGTQVTVSS
- polyreactivity (PSR sort gate): low polyreactivity

Sequence: QVQLVESGGGLVQAGGSLRLSCAASGRIFDRNAMVWYRQEPWKERELVAAIDDSGGDTSYADSVKGRFTISRDNAKNTVYLQMNSLKPEDTAVYYCNAGYADFVTYPRYYYWGQGTQVTLSS
- polyreactivity (PSR sort gate): low polyreactivity

Sequence: QVQLVESGGGLVQAGGSLRLSCAASGITFGRNTMGWYRQAPGKERELVAAITYRSGRTYYADSVKGRFTISRDTAKNTVYLQMNILKPEDTAVYYCNTVSPYYDYDYWGQGTQVTVSS
- polyreactivity (PSR sort gate): high polyreactivity

Sequence: QVQLVESGGGLVQAGGSLPLSCAASGSNLRRYDMGLYRQAPGKERELVAAISSSGGSTYYADSVKGRFTISRDNAKNTVYLQMNSLKPEDTAVYYCAADIYDDDRSEYTEYDYWGQGTHVTVSS
- polyreactivity (PSR sort gate): low polyreactivity

Sequence: QVQLVESGGGLVQAGGSLRLSCAAYYAMGWYRQAPGKERELVAAIDDGTSTNYADSVKGRFTISRDNAKNTVYLQMKSLKPEDTAVYYCNKLSEVTYYGSKFDYWGQGTQVTVSS
- polyreactivity (PSR sort gate): low polyreactivity

Sequence: QVQLVESGGGLGQAGGSLRLSCAASGFIFVWYAMGWYRQAPGKERELVAAINWSGGHTYYADSVKGRFTISRDNSKNTVYLQMNSLKPEDTAVYYWNADSLWYWFYPYNYWGQGTQVTVSS
- polyreactivity (PSR sort gate): low polyreactivity

Sequence: QVQLVESGGGLVQAGGSLRLSCAASGLIFVRYAMGWYRQAPGKERELVADISTSDGSTRYADSVKGRFTISRDNEKNTVYLQMNSLKPEDTAVYYCAGGSEYYSYGGVRFSFYYWGQGTQVTVSS
- polyreactivity (PSR sort gate): low polyreactivity

Sequence: QVQLVESGGGLVQAGGSLRLSCAASGFTFRYYAMGWYRQAPGKEREFVAAIRSSGTTTSYADSVKGRFTISRDNEKNTVYLQMNSLKPEDTAVYYCAAGYFGPQQYYYWGQGTQVTVSS
- polyreactivity (PSR sort gate): high polyreactivity

Sequence: QVQRVESGGGLVQAGGSLRLSCAASGRTFVFYDMGWYRQAPGKERELVAAITSSGGRTYYADSVKGRFTISRDNAKNTVYLQMYRVKPEDTAVYYCAAPYYPYKYDSWGQGTQVTVSS
- polyreactivity (PSR sort gate): low polyreactivity

Sequence: QVQLVESGGGLVQAGGSLRLSCAASGFIFYSYAMGWYRQAPGKERELVAAITSSGGNTYYADSVKGRFTISRDNAKNTVYLQMNSLKPEDSAVYYCAASSRFWTFYYGIILYDYWGQGTQVTVSS
- polyreactivity (PSR sort gate): high polyreactivity

Sequence: QVQLVESGGGLVQAGGSLRLSCAASGSIFPIYAMGWDRQAPGKERELVASINISGGRTYYADSVKGRFTISRDNAKNTVYLQMNSLKPEDSAVYYCAAEWYTTSEYDYWGQGTQVTVSS
- polyreactivity (PSR sort gate): low polyreactivity
